Laboratory results from the supplement of paper PMC9170038.

What follows are sequences tested on MS2 coat protein (assay: apparent KD of MS2 coat protein, switch ON state; designed switch direction (-1 OFF switch, 1 ON switch): -1; higher = weaker reporter binding). Conditions: FMN input: 0 or 200 uM; Eterna round: R93 (includes R88 designs).
How it was run: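 Titrations with SNAP-549-labelled MS2 coat protein ran in twofold steps from 0.7 or 1.5 nM to 3 µM, each step taking 0.8–1.5 h at the start and 10–20 min toward the end. The targets were designed RNA switches transcribed on-chip from Illumina sequencing clusters, held in 100 mM Tris-HCl pH 7.5, 80 mM KCl, 4 mM MgCl2, without or with constant ligand. Apparent KD was taken per design as the median of normalised cluster binding-curve fits.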
“CCCUCACAUGAGGAUCACCCAUGUUAGGAUAUCUACCAGGAGCCUAAAAUGGCCCAACGGAGAAGGAACGUGCA [Arbire]” was tested, and the “apparent KD of MS2 coat protein” value was 19.2 nM. “CACGUACAUGAGGAUCACCCAUGUUAGGAUAUGCCGGGUAAGAGAAAACUAAAAACCCGUAGAAGGGACGAAAC [Bilbo Confounded 13 - Jieux - Exclusion 1]” was tested, and the “apparent KD of MS2 coat protein” value was 23.3 nM. “GUCAGCUGAGGAUAUACAGGUGAGGCCGCAGGACAAAAUAUACAUGAGGAUCACCCAUGUAGAAGGCGGAAGAC [Vegea]” was tested, and the “apparent KD of MS2 coat protein” value was 33.8 nM. For “AAAAAGUGAGGAUAUACGCGAACAAAAAAAAAAAAGAAAGCGUAGAAGGCACAUGAGGAUCACCCAUGUCCAAA [Alfred 64% 4]”, the “apparent KD of MS2 coat protein” value was 28 nM. With “AAAAAACAUGAGGAUCACCCAUGUAAGGAUAUCUAAAAUAAAAGAAAAAUAAAGAAAAGGAGAAGGUACAUGCA [JL wbt mod 26]” the “apparent KD of MS2 coat protein” value was 32 nM. “AAAAAGUUAGGAUAUACAUGAGGAUCACCCAUGUACAUAUAUGGAGAAAAAAACAGUAGUAGAAGGGACAAAAA [EX2 Malc#12]” was tested, and the “apparent KD of MS2 coat protein” value was 20.6 nM. For “AAAAAAUCAGGAUAUACAUGAGGAUCACCCAUGUGAAAGAACGAUUAACGACCAGCAAGUAGAAGGGAUAAAAA [Ruby 81]”, the “apparent KD of MS2 coat protein” value was 18.1 nM. “CUCAAGUAAGGAUAUUUAUGAAAUGAAGUGAAAGAAAAGAAAAAGAAGGUACAUGAGGAUCACCCAUGUUAGAA [EteRNA is fun!]” was tested, and the “apparent KD of MS2 coat protein” value was 32.8 nM. With “AAGAAAGGAGGAUAUACAUGAGGAUCACCCAUGUAAAAGAAAGAAAGGGAAAAGAAAAGUAGAAGGCCUAAGAA [Shoshenq IV]” the “apparent KD of MS2 coat protein” value was 35.3 nM. “AAAGGACGAGGAUAUACAUGAGGAUCACCCAUGUAAAAAACAUAGUAAAAGUGCUUGUGUAGAAGGCGUCCAAA [Meechl Ex3 2 R2 v9]” was tested, and the “apparent KD of MS2 coat protein” value was 78.1 nM. “CAGUACUGAGGAUAUACAUGAGGAUCACCCAUGUGUUCCAGCUAGGAAACUAGCAAAAGUAGAAGGCAGUACUG [Ex3: 828]” was tested, and the “apparent KD of MS2 coat protein” value was 24.6 nM. In the case of “AGUUGGCGAGGAUAUACAUGAGGAUCACCCAUGUGAGAGAUAAAAGUGAGAAAGAAAAGUAGAAGGCGCUAACA [JL Lego Mod 20]”, the “apparent KD of MS2 coat protein” value is reported as 45.6 nM. In the case of “AUCAACCUAGGAUAUACAUGAGGAUCACCCAUGUACAGAUACAACAAGGGAAACACACGUAGAAGGAGGAAGAU [JR_Exc003_Sub1205]”, the “apparent KD of MS2 coat protein” value is reported as 24.4 nM. “AAAACACAUGAGGAUCACCCAUGUGAGGAUAUGCUAUGGAAAAUAAAAAUAAAACAUAGCAGAAGGCGCAGGAA [Denovo 20]” was tested, and the “apparent KD of MS2 coat protein” value was 29.8 nM. “AGACAUACAGGAUAUACAUGGGAAAAAAAAAAAAAAAUUCUACAUGAGGAUCACCCAUGUAGAAGGGUAUGUCA [Ex2 Design 171: Random 1B]” was tested, and the “apparent KD of MS2 coat protein” value was 81.1 nM. In the case of “AAAACACAUGAGGAUCACCCAUGUGAGGAUAUGAACGAAAUAAAAUAAAAAUAAAAGUUCAGAAGGCACAAAAA [Mat - Exclusion 1 - Eli mod - D13]”, the “apparent KD of MS2 coat protein” value is reported as 22.2 nM. In the case of “AAGCCACAUGAGGAUCACCCAUGUAAGGAUAUGAACGAAAUAAAAUAAAAAUAAAAGUUCAGAAGGUACAAAAA [Mat - Exclusion 1 - Eli mod - D23]”, the “apparent KD of MS2 coat protein” value is reported as 20.2 nM. In the case of “AAAAAACAUGAGGAUCACCCAUGUCAGGAUAUCCGGUUCUUAAAAAAAAAAAGGCGUUGGAGAAGGGACAUUCC [Chica Displaced 11 - Jieux - Exclusion 1]”, the “apparent KD of MS2 coat protein” value is reported as 28.9 nM. In the case of “AGUAACCAAGGAUAUACAAAACCUGUGAUCGAAUGGAUUUUACAUGAGGAUCACCCAUGUAGAAGGUGGAAAGG [Xeedce]”, the “apparent KD of MS2 coat protein” value is reported as 22.7 nM. For “UUUAUGUGAGGAUAUGUACAGAAAAAAAAGGGUGUAACUGUACAGAAGGCACAUGAGGAUCACCCAUGUGAAUA [EX4 381: S S Pseudoknot 6]”, the “apparent KD of MS2 coat protein” value was 113 nM. In the case of “AACUAGCUAGGAUAUACAUGAGGAUCACCCAUGUAAAAAAAAAAAAAAAGAUCAAAAUGUAGAAGGAGCUAGUA [Design 2 - Brourd - Exclusion 3]”, the “apparent KD of MS2 coat protein” value is reported as 59.6 nM. “AAAAGCUCAGGAUAUACGGUCUGUUGUUGAAAAAGUAAAAAACAUGAGGAUCACCCAUGUAGAAGGGAGCGAAA [Exclusion2-cac1]” was tested, and the “apparent KD of MS2 coat protein” value was 39.7 nM. With “AAAAAGUAAGGAUAUAGCAAAGGUCACGAAAGUGACAAAGGCUAGAAGGUACAUGAGGAUCACCCAUGUCCAAG [Mat - Exclusion 4 - Eli mod - D100]” the “apparent KD of MS2 coat protein” value was 30.8 nM. In the case of “AAAAUACAUGAGGAUCACCCAUGUGAGGAUAUUAGAAAGGGAAUAAAAUAACUUAAACUAAGAAGGCACAAAAA [Ex 1 May 28]”, the “apparent KD of MS2 coat protein” value is reported as 18.2 nM. With “AAGAACCGAGGAUAUACAUGAGGAUCACCCAUGUAAAAGAAAGAAGGGAAAGAGAAAAGUAGAAGGCGGAAGAA [Usermaatre Shoshenq VI]” the “apparent KD of MS2 coat protein” value was 36.1 nM. With “AAAAACGGAGGAUAUACAAAUUAAGGAAGAAAACACGAAAAACAUGAGGAUCACCCAUGUAGAAGGCCGGAAAA [Ex 2 #3]” the “apparent KD of MS2 coat protein” value was 24.1 nM. In the case of “AAGAAGCUAGGAUAUACAUGAGGAUCACCCAUGUAAAAGAAAGAAAGGGAAAAGAAAAGUAGAAGGAGCAAGAA [Netjerikheperre-setpenamun Siamun-meryamun]”, the “apparent KD of MS2 coat protein” value is reported as 12.2 nM. “AAAACGGCAGGAUAUACAGAUGAGAACUAGACCGAAAAAAAACAUGAGGAUCACCCAUGUAGAAGGGCCAAAAA [Ex2 Malc#7]” was tested, and the “apparent KD of MS2 coat protein” value was 27.8 nM. For “AGCUAGUCAGGAUAUACGAAAAUGAUAGAAGACGUAAGGGAACAUGAGGAUCACCCAUGUAGAAGGGACUAGCA [Diamond 47]”, the “apparent KD of MS2 coat protein” value was 24.7 nM. In the case of “AAAAAGUCAGGAUAUACAUGAGGAUCACCCAUGUGAAAGAACGAUUAACGACCAGCAAGUAGAAGGGACAAAAA [Ruby 80]”, the “apparent KD of MS2 coat protein” value is reported as 22 nM. For “UCCGGACAUGAGGAUCACCCAUGUGAGGAUAUAUAAAGUGGGACUAGAAACAGUCCCAAUAGAAGGCACAUGAC [Esarbiorar]”, the “apparent KD of MS2 coat protein” value was 22 nM. “AAAAAGUGAGGAUAUUCGGAUAGGAAAACGAAAACCUAUCCGAAGAAGGCACAUGAGGAUCACCCAUGUGGGAA [67% Ecls-II - Early G + late G segment 3]” was tested, and the “apparent KD of MS2 coat protein” value was 52.6 nM. For “AGUAGUACAGGAUAUACAUGAGGAUCACCCAUGUGAAAAAUAAGUGGCGUACCACAAAGUAGAAGGGUACUACA [Mat - Exclusion 3 - JL mod - D37]”, the “apparent KD of MS2 coat protein” value was 29.9 nM. With “AGAAAGUCAGGAUAUGCGAAGGCGUCUGAUAGACGAGGCUAGCAGAAGGGACAUGAGGAUCACCCAUGUGAAGA [Mat - Exclusion 4 - Eli mod - D85]” the “apparent KD of MS2 coat protein” value was 55 nM. In the case of “CUCAUGUCAGGAUAUGUAGCAUGAUACGAAAGUAUCAUGCUACAGAAGGGACAUGAGGAUCACCCAUGUGAUCA [Ex4: 941]”, the “apparent KD of MS2 coat protein” value is reported as 31.7 nM. In the case of “AAAAAACAUGAGGAUCACCCAUGUGAGGAUAUGAAAAUACUAAGACAACAGUAAUCAAUCAGAAGGCACAACAA [JR_Exc--1_Sub1209]”, the “apparent KD of MS2 coat protein” value is reported as 20.1 nM. “AGUAAACAUGAGGAUCACCCAUGUGAGGAUAUCGAAAAGAAAAGAAAAGAAAGAAGAAUGAGAAGGCACAAGAA [Huni]” was tested, and the “apparent KD of MS2 coat protein” value was 33.3 nM. For “UAAAGACAUGAGGAUCACCCAUGUGAGGAUAUAGGUGUAUGCAAAAAAAAGCAUACACCUAGAAGGCACAGAAA [JR_Exc001_Sub303]”, the “apparent KD of MS2 coat protein” value was 44 nM. In the case of “AAAUAGUUAGGAUAUACAUGAGGAUCACCCAUGUGCACUUAUGGAGAAUAGGGUAAUGGUAGAAGGGACUAAAA [EX2 Malc#21]”, the “apparent KD of MS2 coat protein” value is reported as 36.2 nM. For “CUCAAGUGAGGAUAUACAAAUAGUAAAUAAGUAUAACAAAAGUAGAAGGCACAUGAGGAUCACCCAUGUAAAUA [JR_Exc004_Sub302]”, the “apparent KD of MS2 coat protein” value was 29.4 nM. “UGCAUGUAAGGAUAUGCAACCGGCGCUCAUUAACCGGUCAAGCAGAAGGUACAUGAGGAUCACCCAUGUGUCCG [Esteleus]” was tested, and the “apparent KD of MS2 coat protein” value was 17.2 nM. “AAGAAGUCAGGAUAUGCCAAAGAUCACGAAAGUGACAAAGGGCAGAAGGGACAUGAGGAUCACCCAUGUAAAGA [Opal 3]” was tested, and the “apparent KD of MS2 coat protein” value was 54.7 nM. With “AGGAAACAUGAGGAUCACCCAUGUUAGGAUAUGAACGAAAUAAAAUAAAAAUAAAAGUUCAGAAGGGACAAAAA [Mat - Exclusion 1 - Eli mod - D20]” the “apparent KD of MS2 coat protein” value was 24.9 nM. For “UAAAAGUGAGGAUAUUCGGAUAGGAAAACGAAAACCUAUCCGAAGAAGGCACAUGAGGAUCACCCAUGUAAAAU [Mat - Exaclusion 4 - Eli mod - D37]”, the “apparent KD of MS2 coat protein” value was 33.1 nM. “AAAAAACAUGAGGAUCACCCAUGUGAGGAUAUUAAAAAUAAGAAGGCAUAAAAAAAAAUAAGAAGGCACAUGAA [Meechl MS2 Ex1]” was tested, and the “apparent KD of MS2 coat protein” value was 27.9 nM.
